Laboratory results from patent publication US20190112340A1 (US Dept. of Health and Human Services, published 2019).

Assays:
Assay in all cases: ELISA after 1 week at 4 °C
sc9-10 Cav1only 146-458 = molecular target: sc9-10 Cav1only 146-458
RSVF Cav1only = molecular target: RSVF Cav1only
sc9-10 Cav1only 100-362 = molecular target: sc9-10 Cav1only 100-362
sc9-10 Cav1only 369-455 = molecular target: sc9-10 Cav1only 369-455
sc9-10 Cav1only 100-361 = molecular target: sc9-10 Cav1only 100-361
sc9-10 Cav1only 98-361 = molecular target: sc9-10 Cav1only 98-361
sc9-10 Cav1only 99-362 = molecular target: sc9-10 Cav1only 99-362
[1] = molecular target: sc9-10 N183GC N428C Long CAV1only
sc9-10 Cav1only 99-361 = molecular target: sc9-10 Cav1only 99-361
sc9-10 Cav1only = molecular target: sc9-10 Cav1only
sc9-10 Cav1only 98-362 = molecular target: sc9-10 Cav1only 98-362
[2] = molecular target: sc9-10 A149C Y458C Long CAV1only

B1: D25 antibody (antibody, V domains shown)
VH: QVQLVQSGAEVKKPGSSVMVSCQASGGPLRNYIINWLRQAPGQGPEWMGGIIPVLGTVHYAPKFQGRVTITADESTDTAYIHLISLRSEDTAMYYCATETALVVSTTYLPHYFDNWGQGTLVTVSS
VL: DIQMTQSPSSLSAAVGDRVTITCQASQDIVNYLNWYQQKPGKAPKLLIYVASNLETGVPSRFSGSGSGTDFSLTISSLQPEDVATYYCQQYDNLPLTFGGGTKVEIKR
B1 was tested, and the “ELISA signal (antigenicity)” value (sc9-10 Cav1only 146-458) was 2.34, the “ELISA signal (antigenicity)” value (RSVF Cav1only) was 3.33 and the “ELISA signal (antigenicity)” value (sc9-10 Cav1only 100-362) was 0.416. For the same binder, the “ELISA signal (antigenicity)” value (sc9-10 Cav1only 369-455) was 2.94, the “ELISA signal (antigenicity)” value (sc9-10 Cav1only 100-361) was 0.92 and the “ELISA signal (antigenicity)” value (sc9-10 Cav1only 98-361) was 1.84. The “ELISA signal (antigenicity)” value (sc9-10 Cav1only 99-362) was 1.39, the “ELISA signal (antigenicity)” value [1] was 0.502 and the “ELISA signal (antigenicity)” value (sc9-10 Cav1only 99-361) was 2.89. The “ELISA signal (antigenicity)” value (sc9-10 Cav1only) was 3.6, the “ELISA signal (antigenicity)” value (sc9-10 Cav1only 98-362) was 0.957 and the “ELISA signal (antigenicity)” value [2] was 2.88.
